The labels stand for the following.
B1: Azoarcus group I ribozyme (parent)
chain: GUGCCUUGCGCCGGGAAACCACGCAAGGGAUGGUGUCAAAUUCGGCGAAACCUAAGCGCCCGCCCGGGCGUAUGGCAACGCCGAGCCAAGCUUCGGCGCCUGCGCCGAUGAAGGUGUAGAGACUAGACGGCACCCACCUAAGGCAAACGCUAUGGUGAAGGCAUAGUCCAGGGAGUGGCGAAAGUCACACAAACCGG

Results on 83 variants are retold here after the RNAGym collection of RNA variant scans (doi:10.1093/molbev/msab373).

The data set covers variants of B1. The experiment in a line: reverse-splicing fitness (ratio to wild type); higher = more active; in vitro selection; Mg2+ level not given. A digest of the protocol: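 An in vitro group I ribozyme library with randomized positions was T7-transcribed and gel-purified. In triplicate, 10 pmol RNA in EPPS pH 7.5 was reacted with 50 pmoles of a 30-nt RNA substrate for 1 h at 37 °C across several added MgCl2 levels (1–48 mM), then stopped with EDTA. Products were reverse transcribed from a substrate-complementary primer, PCR-amplified and sequenced (HiSeq 4000). Fitness is a variant's read proportion after selection over that before, normalised to wild type.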
Take C82G A111U A120G A145G C150U C169G U176A: the reverse-splicing fitness was 0.0137.

In the case of A111U A120G A145U C150G C169U U176C, the reverse-splicing fitness came to 0.0151.

Regarding C82G A111C A120C A145U C150A C169G U176A, the reverse-splicing fitness was 0.0143.

Take C82U A111U C150U U176A: the reverse-splicing fitness came to 0.0519.

Regarding A111C A120G C150G, the reverse-splicing fitness was determined as 0.0159.

For C82A A145G C150U U176A, the reverse-splicing fitness was found to be 0.287.

On to C82A A120C U176G, for which the reverse-splicing fitness is 0.00961.

Consider C82G A111G A120C A145C C150U C169A, for which the reverse-splicing fitness is 0.00918.

Regarding C82A A111G A120C A145G C150U C169G U176C, the reverse-splicing fitness was 0.0192.

Regarding C82A A111C A145G C150G C169A U176G, the reverse-splicing fitness was 0.00877.

C82U A111G A120U C150A U176G: the reverse-splicing fitness was determined as 0.00238.

For the variant C82A A120C C150G C169A U176G, the reverse-splicing fitness is 0.00817.

For the variant C82G A145G C150G C169A U176A, the reverse-splicing fitness came to 0.0146.

For the variant C82U A120U A145C U176A, the reverse-splicing fitness amounted to 0.0354.

Consider C82A A111U A120C C150U U176G, for which the reverse-splicing fitness was found to be 0.00805.

For C82A A111U A120C C150A U176C, the reverse-splicing fitness was found to be 0.0239.

C82U A111C A120U A145G C169U: the reverse-splicing fitness stood at 0.00448.

Regarding C82G A111U A120C C150A C169G U176G, the reverse-splicing fitness was 0.00701.

With A120C C150U C169G, the reverse-splicing fitness came out at 0.0172.

As to C82G A111C A120G A145C C150A U176C, the reverse-splicing fitness came out at 0.011.

Regarding A120U A145U C150G C169A U176C, the reverse-splicing fitness came to 0.00335.

C82U A111C A120U C150G U176G: the reverse-splicing fitness is 0.00291.

As for C82A A111G A120U A145U C150A C169G U176C, the reverse-splicing fitness was 0.00264.

Turning to C82G A111G A120G A145G C150A U176C, the reverse-splicing fitness turned out to be 0.0232.

For C82A A111C A120G A145G C150A C169G U176G, the reverse-splicing fitness stood at 0.00656.

Consider C82G A120G A145G C150G C169A U176A, for which the reverse-splicing fitness was 0.013.

Regarding C82U A111C A145U C150G C169A U176A, the reverse-splicing fitness stood at 0.00909.

For the variant C82A A111G A120C C150U C169A U176G, the reverse-splicing fitness turned out to be 0.00635.

Regarding A111G A120G C150G U176C, the reverse-splicing fitness was 0.0173.

Regarding C82U A111U A120U C150G C169G U176A, the reverse-splicing fitness stood at 0.00411.

Regarding A111U A120G A145G C169U U176G, the reverse-splicing fitness was found to be 0.00601.

On to C82U A145C C150U U176G, for which the reverse-splicing fitness was determined as 0.0408.

As to C82A A111G A120C A145U C150G C169U U176A, the reverse-splicing fitness came to 0.00666.

On to C82U A111G A145G C150U C169A U176A, for which the reverse-splicing fitness stood at 0.0161.

Take C82A A111G A120G A145U C169A U176G: the reverse-splicing fitness was 0.0046.

On to C82A A111G A120G A145U C169A U176C, for which the reverse-splicing fitness came to 0.0121.

On to C82U A120C A145U C150U C169A U176C, for which the reverse-splicing fitness is 0.00582.

Consider A111U A145C C169A U176A, for which the reverse-splicing fitness stood at 0.0105.

In the case of C82U A145G C150G C169U U176A, the reverse-splicing fitness was found to be 0.0125.

With C82U A111U A120C A145U C150U C169G, the reverse-splicing fitness was 0.00796.

For the variant C82U A111C A120C A145C C169A, the reverse-splicing fitness was 0.00667.

In the case of C82U A120C C150A C169G U176C, the reverse-splicing fitness was 0.0164.

Turning to C82G A111U C150U C169G U176A, the reverse-splicing fitness worked out at 0.0149.

As to A111C A145C C169U U176G, the reverse-splicing fitness was determined as 0.00694.

As to A111C A145G C150A U176G, the reverse-splicing fitness was determined as 0.058.

On to C82U A111G A120U A145C C150G C169G, for which the reverse-splicing fitness turned out to be 0.00252.

With C82A A111U A120G C150U C169U U176A, the reverse-splicing fitness is 0.0197.

Take C82G A145C C150A C169U U176A: the reverse-splicing fitness came out at 0.0123.

Consider C82A A111C A145C C150A C169U U176A, for which the reverse-splicing fitness came out at 0.0138.

As to A111G A120U A145C C150G C169U U176A, the reverse-splicing fitness was found to be 0.00272.

Take C82G A111U A120G A145C C169U U176G: the reverse-splicing fitness was found to be 0.00479.

Take C82U A111U A120C C169A U176A: the reverse-splicing fitness amounted to 0.0152.

In the case of C82G A111G A145G C169G U176G, the reverse-splicing fitness turned out to be 0.00505.

For the variant C82G A111G A120G A145G C150A C169A, the reverse-splicing fitness was 0.0113.

C82A A111C A145C C150U C169U U176C: the reverse-splicing fitness turned out to be 0.0108.

With C82G A111G A120G A145C C169A U176A, the reverse-splicing fitness was 0.0165.

As for C82G A111C A120U A145G C150G C169A U176C, the reverse-splicing fitness is 0.00861.

In the case of C82A A111C A120C A145C C150A C169U U176C, the reverse-splicing fitness was determined as 0.0127.

Regarding C82G A111G A120U A145C C150G C169A U176A, the reverse-splicing fitness came to 0.00237.

Consider C169A U176A, for which the reverse-splicing fitness came to 0.0336.

As for C82A A111G C150G C169G, the reverse-splicing fitness came to 0.00678.

For C82U A145U C150G C169U U176C, the reverse-splicing fitness is 0.0114.

On to C82U A111G A145U C150G C169U U176A, for which the reverse-splicing fitness was found to be 0.00755.

On to C82U A111U A120G A145G U176G, for which the reverse-splicing fitness is 0.00453.

As to A111G A120U A145G C169G U176C, the reverse-splicing fitness is 0.0201.

With C82U A111G A120C A145G C150A C169U U176G, the reverse-splicing fitness came out at 0.00508.

In the case of C82G A111G A120G A145U C150G C169A U176G, the reverse-splicing fitness stood at 0.00555.

On to A111U A120U A145U C150G C169G U176A, for which the reverse-splicing fitness turned out to be 0.00294.

As to C82U A111U A120U C169A U176G, the reverse-splicing fitness stood at 0.00193.

Consider C82A A120U C150G C169A U176C, for which the reverse-splicing fitness turned out to be 0.00411.

Take A111U A120C A145C: the reverse-splicing fitness is 0.537.

With C82U A120C A145U C169U U176G, the reverse-splicing fitness was determined as 0.00405.

In the case of C82G A111C A120U A145C C150A C169U, the reverse-splicing fitness turned out to be 0.00329.

With C82G A111U A120U A145G C150G C169G U176A, the reverse-splicing fitness stood at 0.00963.

Turning to C82G A111G A120G A145C C150G C169G U176A, the reverse-splicing fitness is 0.00914.

C82U A111C A145C C150U C169A: the reverse-splicing fitness amounted to 0.00854.

On to A111C A120G A145G C150G C169A U176A, for which the reverse-splicing fitness turned out to be 0.0128.

For A111U A120C C169G U176A, the reverse-splicing fitness worked out at 0.0144.

Take C82U A111C A145G C150A U176C: the reverse-splicing fitness turned out to be 0.0313.

Take A111U A120C A145C U176A: the reverse-splicing fitness turned out to be 0.232.

Consider A111G A120U A145C C150A U176A, for which the reverse-splicing fitness is 0.0179.

With C82G A111C A145G C150A C169U U176C, the reverse-splicing fitness turned out to be 0.0161.

Take C82G A120U A145G C150A C169U: the reverse-splicing fitness was determined as 0.00376.
